Results from patent US20240218057A1 (ROCKEFELLER UNIVERSITY, published 2024).

What follows are binders tested against T1, SARS-COV-2 RBD (SARS-COV-2, UniProt P0DTC2 319-539) (assay: ELISA, RBD coated on plate).
T1 construct: also called WT RBD

| Binder | EC50 [ng/mL] |
| --- | --- |
| C926 (antibody, V domains shown) VH: QVQLVESGGGVVQPGRSLRLSCAASGFGLITYSMHWVRQAPGKGLEWVGLISFDGNTTYYADSVRGRFTISRDNLANILYLQMNSLRPDDTALYYCARDKRGVIRGLLNFWGQGSLVTVSS VL: DIVMTQSPDSLAVSLGERATINCKSSQSLLPSSNSNNYLAWYQQKSGQPPNLLIYWASTRESGVPDRFSGSGSETDFSLTISNLQAEDVAVYYCQQYYNTPHTFGGGTKVEI | 4.72 |
| C938 (antibody, V domains shown) VH: QVQLVESGGGVVQPGRSLRLSCAASGFTFRSHAMHWVRQAPGKGLEWVAIISSDGFNKYYADSVKGRFTISRDNSKNTLYVHMNSLRVEDTAIYYCASGLLWFETREISGAPDYGMAVWGQGATVTVSS VL: DIQMTQSPSSLSASVGDRVTITCRASQNISNFLNWYQQKPGKAPKLLIYAASSLQSGVPSRYSGSGSGTDFTLTISSLQAEDFATYYCQQSYSTPLTFGGGTKVEIK | 2.63 |
| C934 (antibody, V domains shown) VH: QVQLVQSGAEVKKPGASVKVSCKASGYTFTDYYIHWVRQAPGQGLEWMGWINPNSGGTNYAQKFQGRVTMTRDTSISTAYMDLSRLRSDDTAVYYCARDVIITMGRGVVFRMDVWGQGTTVTVSS VL: not shown | 0.95 |
| C914 (antibody, V domains shown) VH: QVQLQESGPGLVKPSQTLSLTCTVSGGSITSGDYYWTWIRQPPGKGLEWIGYIYYSGNTYYNLSLRSRITISEDTSKNQFSLKLRSVTAADTAVYYCARAMITFGGVIVVLDYWGQGTLVTVSS VL: QSALTQPPSASGSPGQSVTISCTGTSTDVGGYNFVSWYQQHPGKAPKLMIYEVSKRPSGVPDRFSGSKSGNTASLTVSGLQAEDEADYYCSSYAGSNILYVFGTGTKVTVL | 1.59 |
| C915 (antibody, V domains shown) VH: QVQLQESGPGLVKPSQTLSLTCTVSGGSISSGDYYWSWIRQPPGKGLEWIGYIYYSDSTYYNPSLRTRVTISVDTSKNQFSLKLTSVTAADTAVYYCARAMITFGGVIVLYDYWGQGTLVTVSS VL: QSALTQPPSASGSPGQSVTISCTGTSSDVGGYNYVSWYQQHPGKAPKLMIYEVTKRPSGVPARFSGSKSGNTASLTVSGLQAEDEADYYCSSYAGSILLYVFGTGTKVTVL | 3.49 |
| C922 (antibody, V domains shown) VH: QVQLVESGGGLVKPGGSLRLSCAGSGFTFTDYYMAWIRQAPGKGLEWVSYISTSDRFINYADSVKGRFTISRDDAKNSLYLQMNSLRAEDTAVYYCARDGGGYDRFDHWGQGTLVTVSS VL: DIQMTQSPSSLSASVGDRVTITCQASQDISNLLNWYQQKAGKAPKLLIYDASNLETGVPSRFSGSGSGTDFTFTISSLQPEDIATYYCLQYDNLPLTFGQGTKLEIK | 2.42 |
| C923 (antibody, V domains shown) VH: QVQLVESGGGLVKPGGSLRLSCAASGFTFSDYHMTWIRQAPGKGLEWVSYISNRSTYRNYADSVKGRFTISRDNAKNSLYLQMNSLRAEDTAVYYCARDGGAYDRFDYWGQGTLVTVSS VL: DIQMTQSPSSLSASVGDRVTITCQASQDIKKFLNWYQQKPGKAPKLLIYDASNLETGVPSRFSGSGSGTDLTFTISSLQPEDIATYYCQQYDNLPLTFGQGTKLEIK | 1.95 |
| C935 (antibody, V domains shown) VH: QVQLVESGGGVVQPGRSLRLSCAATGFTFSSYGMHWVRQAPGKGLEWVALIWYDGSNQYYVDSVKGRFTISRDNSKKTLYLQMNSLRVEDTAVYYCARDFSNSDMVTLSDAFDIWGQGTMVTVSS VL: DIQLTQSPSFLSASVGDRVTIACRASQGISSYSSYLAWYQQKPGKAPKLLIYAASTLQSGVPSRFSGSGSGTEFTLTISSLQPEDFATYYCQQLNSYPLFTFGPGTKVDIK | 2.86 |
| C913 (antibody, V domains shown) VH: EVQLVESGGVVVQPGGSLRLSCAASGFTFDDYSMHWVRQVPGKGLEWIAVIFWDGTSTYYADSVKGRFTISRDNSKKSLYLQMNSLRSEDTALYYCAKDSEDCSSTSCYVDHWGQGTLVTVSS VL: not shown | 2.58 |
| C920 (antibody, V domains shown) VH: QLQLQESGPGLVKPSETLSLTCAVSGGSISNSPFYWGWIRQPPGKGLECIGSIYYSGSTYYNPSLKSRVTISVDTSKKQFSLKLSSVTAADTAVYYCARHFADGSGRVVDSWGQGILVTVSS VL: EIVLTQSPATLSLSPGERATLSCRASQSVSSYLAWYQQKPGQAPSLLIYDVSNRATGIPARFSGSGSGTDFTLTISSLEPEDFAVYYCQQRINWPLYTFGQGTKLEIK | 2.35 |
| C921 (antibody, V domains shown) VH: QLQLQESGPGLVKPSETLSLTCAVSGGSISNSPFYWAWIRQPPGKGLECIGSIYYTGSTYYNPSLKSRVTISVDTSTKQFSLKLRSVTAADTAVYYCARHFADGSGRVVDYWGQGTLVTVSS VL: EIVLTQSPATLSLSPGERATLSCRASQSVTTYLAWYQQKPGQAPRLLIYDVSSRATGIPARFSGSGSGTDFTLTISSLEPEDFAVYYCQQRSNWPLYTFGQGTKLEIK | 3.91 |
| C927 (antibody, V domains shown) VH: QVQLVESGGGVVQPGRSLRLSCVASGFTFSYFDMHWVRQAPGKGLEWVALISHDGSTTFYGDSARGRFTISRDNSRNTLDLQMNSLRPEDTAVYFCAKPVDAAMFDFWGQGTLVTVS VL: SYELTQPPSVSVAPGKTARITCGGNNIGSKSVHWYQQRPGQAPVLVIYYDSDRPSGIPERFSGSNSGNTATLTISRVEAGDEADFYCQVWDRSTNHLVVFGGGTQLTVL | 3.77 |
| C918 (antibody, V domains shown) VH: QVQLVESGGGLVKPGGSLRLSCTASGFTFSDYYMTWLRQAPGKGLEWVSYISSTSPYTSYADSVKGRFTISRDNARNSVYLQMNSLRAEDTAIYYCARVPPPQRLHPFDVWGQGTMVTVSS VL: DIQMTQSPSTLSASVGDRVTITCRASQSISSWLAWYQQKPGKAPKLLIYQASSLESGVPSRFSGSGSGTDFTLTISSLQPDDFATYYCQQYFRYSWTFGQGTKVEI | 1.78 |
| C931 (antibody, V domains shown) VH: QVQLVESGGGVVQPGRSLRLSCAASGFSFSTYGMHWVRQAPGKGLEWVAVISFDGSQKYYGDSVKGRFTISRDNPKNTLDLQMNSLRAEDTAVYYCAKVVVRGVIISLYYGMDVWGQGTTVTVSS VL: not shown | 2.57 |
| C916 (antibody, V domains shown) VH: EVQLVESGGGLVQPGGSLRLSCAASGFTFSNYDMHWVRQATGRGLEWVSTIGTAGDTYYPGSVKGRFTISRENAKNSLYLQMNSLRAGDTALYYCARVRYDSSGYFWSLDYWGQGTLVTVSS VL: not shown | 1.97 |
| C917 (antibody, V domains shown) VH: EVQLVESGGGLVQPGGSLRLSCAASGFTFSNYDMHWVRQATGKGLDWVSTIGTAGDTYYPGSVKGRFTISRENAKNSLYLQMNSLRAGDTAVYYCARVRFDTSGYFWSLDYWGQGTLVTVSS VL: not shown | 1.05 |
| C929 (antibody, V domains shown) VH: EVQLVESGGGLIQPGGSLRLSCAASGFTVSSNYMTWVRQAPGKGLEWVSVIYSGGTTYYADSVKGRFTISRDNSKNTLYLQMNSLRAEDTAVYYCARDLVVWGMDVWGQGTTVTVSS VL: DIQLTQSPSFLSASVGDRVTITCRASQGISSYLAWYQQKPGKAPKLLIYAASTLQSGVPSRFSGSGSGTEFTLTISSLQPEDFATYYCQLLNSYPYTFGQGTKLEIK | 2.07 |
| C936 (antibody, V domains shown) VH: EVQLVESGGGLIQPGGSLRLSCAASGFTVSSNYMSWVRQAPGKGLEWVSVIYSGGSTFYADSVKGRFTISRDNSKNTLYLQMNSLRAEDTAVYYCARDLGTGLFDYWGQGTLVTVSS VL: DIQLTQSPSFLSASVGDRVTITCRASQGISSYLAWYQQKPGKAPKLLIYAASTLQSGVPSRFSGSGSGTEFTLTISSLQPEDFATYYCQQLDSYPPGTFGPGTKVDIK | 1.56 |
| C937 (antibody, V domains shown) VH: EVQLVESGGGLIQPGGSLRLSCAASELTVSSNYMSWVRQAPGKGLEWVSVIYPGGSTFYADSVKGRFTISRDNSKNTLYLQMNSLRAEDTAVYYCARDLGTGLFDYWGQGTLVTVSS VL: DIQLTQSPSFLSASVGDRVTITCRASQGISSYLAWYQQKPGKAPKLLIYAASTLQSGVPSRFSGSGSGTEFTLTISSLQPEDFATYFCQLLNSNPPGTFGPGTKVDIK | 0.97 |
| C930 (antibody, V domains shown) VH: EVQLVESGGGLFQPGGSLRLACAASGITVSSNYMSWVRQPPGKGLEWVSVIYAGGSTFYADSVKGRLTISRDNSKNTLYLQINSLRAEDTAVYYCARDLVVWGMDVWGQGTTVTVSS VL: DIQLTQSPSFLSASVGDRVTITCRASQGISSYLAWYQQKPGKAPKLLIYAASTLQSGVPSRFSGSGSGTEFTLTISSLQPEDFATYYCQQLNTYPYTFGQGTKLEIK | 1.24 |
| C932 (antibody, V domains shown) VH: QVQLVESGGSVVQPGKSLRLSCAGSGFAFSTYGMHWVRQAPGKGLEWVAVISSDGGNKYYADSVKGRFTISRDNYENTLYLQMNSLGAEDTAVYYCAKVALRGVFISLYYGMDVWGQGTTVTVSS VL: SYELTQPPSVSVTPGQTASITCSGDKLGDKYACWFLQKPGQSPLLVIYQDTKRPSGIPDRLSGSKSGNTATLTISGTQAMDEADYYCQTWDSSAVVFGGGTKLTV | 3.57 |
| C928 (antibody, V domains shown) VH: QVQLVESGGGVVQPGRSLRLSCAASGFTFSFFDMHWVRQAPGKGLEWVADISYDGSNQYYGDSVKGRFTISRDNSKSTLYLQMNSLRAEDTAVYYCAKPVDTAMFDSWGQGTLVTVSS VL: SYELTQPPSVSVAPGETARITCGGNNIGHKSVHWYQQQPGQAPVLVIYYDSERPSGIPERFSGSNSGNTATLTISRVEAGDEADYHCQVWDGGNDHLVIFGGGTKLTVL | 4.14 |
| C924 (antibody, V domains shown) VH: QVQLVESGGGVVQPGRSLRLSCAASGFTFSSYGMHWVRQAPGKGLEWVAVISDDGSNKYYADSVKGRFTISRDNSKNTLYLQMNSLRAEDTAVYYCAKSWWLSENWFDPWGQGTLVTVSS VL: EIVMTQSPATLSVSPGERATLSCRASQSVSSNLAWYQQKPGQAPRLLIYGASTRATGIPARFSGTGSGTEFTLTISSLQSEDFAVYYCQQYNNWPLTFGGGTKVEIK | 2.5 |
| C925 (antibody, V domains shown) VH: QVQLVESGGGVVQPGRSLRLSCAASGFTFSNYGLHWVRQAPGKGLEWVAVTSDDGNRKYYADSVKGRFTISRDDSKNTLYLQMNNLRTEDTAVYYCAKSWWLSENWFDPWGQGTLVTVSS VL: EIVMTQSPATLSVSPGERATLSCRASQSVRSNLAWYQQRPGQAPRLLIYGAFTRATGIPARFSVSGSGTEFTLTIDSLQSEDFAVYYCQQYNNWPLTFGGGTKVEIK | 2.26 |
